A short description of series [1]: Specific activity: amylase activity measuring method and protein assay kit. The class given is biochemical. The note with it: pH 10 glycine sodium hydroxide buffer, 50° C., 15 minutes, soluble starch as substrate. The method, then:
In a test tube, 0.5 mL of the 1% aqueous solution of soluble starch, 0.2 mL of the 250 mM glycine sodium hydroxide buffer (pH 10) and 0.2 mL of deionized water (said mixture will hereinafter be called “substrate solution”) were charged, followed by preliminary heating for about 5 minutes in a water bath of 50° C. After preliminary heating, 0.1 ml of a properly diluted enzyme solution was added to the reaction mixture, followed by reaction at 50° C. for 15 minutes. After completion of the reaction, 1.0 mL of the DNS reagent was added to the reaction mixture, followed by color development by heating in boiling water for 5 minutes. Immediately after that, the solution was allowed to cool down in an ice-water bath. The resulting solution, after cooling, was added with 4.0 mL of deionized water, followed by mixing. The absorbance of the solution at 535 nm was then measured.
In a test tube, 0.9 mL of the substrate solution was charged, followed by the addition of 1.0 mL of the DNS reagent and then with 0.1 mL of an enzyme solution. The resulting mixture was heated in a boiling water for 5 minutes to cause color development. […] The absorbance of the solution at 535 nm was then measured.
In a test tube, 0.9 mL of the substrate solution was charged, followed by the addition of 1.0 mL of the DNS reagent and then with 0.1 mL of each of the glucose solutions for a calibration curve having various concentrations. […] The absorbance of the solution at 535 nm was then measured. On a graph, the glucose concentration (μmol/0.1 mL) was plotted as abscissa and the absorbance as ordinate and the slope of those linear plots was determined by the least square method. A conversion factor (F) was calculated in accordance with the following formula: Conversion Factor (F)=[1/(slope)]×[1/15]×[1000/0.1]
With the amount of the enzyme which formed reducing sugar equivalent to 1 μmol of glucose in one minute was defined as one unit (1U), the titer of the enzyme was calculated in accordance with the following formula: Activity of amylase (U/L)=[δ-absorbance]×[conversion factor (F)]×[dilution ratio] […]

Series [2] can be described thus: EDTA or EGTA resisting performance (residual enzyme activity). The note with it: 0 to 100 mM EDTA or EGTA, pH 10, 30, 40 or 45° C., 30 minutes; FIGS. 1 and 2. The class given is physicochemical. The method, then:
After 9.3 g of EDTA (product of Sigma Chemical Co., Ltd.) was dissolved in about 80 mL of deionized water, the resulting solution was adjusted to pH 8 with an about SN aqueous sodium hydroxide solution by using a pH meter. To the pH-adjusted solution, deionized water was added to give a total volume of 100 mL, whereby a 250 mM EDTA solution was prepared. The resulting solution was diluted with deionized water to prepare 10 to 100 mM EDTA solutions.
After 9.5 g of EGTA (product of Sigma Chemical Co., Ltd.) was dissolved in about 80 mL of deionized water, the resulting solution was adjusted to pH 8 with an about 5N aqueous sodium hydroxide solution by using a pH meter. To the pH-adjusted solution, deionized water was added to give a total volume of 100 mL, whereby a 250 mM EGTA solution was prepared. The resulting solution was diluted with deionized water to prepare 10 to 100 mM EGTA solutions.
In a test tube, 0.1 mL of the 10 mM EDTA solution, 0.2 mL of the 250 mM glycine sodium hydroxide buffer (pH 10) and 0.1 mL of deionized water were charged, followed by preliminary heating in a water bath of 45° C. for about 5 minutes. […] Thirty minutes later, a 0.1 mL portion of the resulting solution was added to 0.9 mL of the substrate solution preliminary heated in a water bath of 50° C. and the residual enzyme activity was measured in accordance with the amylase activity measuring method. […]

Series [3] in a line: Resisting performance against citric acid or zeolite (residual enzyme activity). Format: physicochemical. The conditions noted are these: 0 to 0.5% trisodium citrate or synthetic zeolite A-3, pH 10, 40 or 45° C., 30 minutes; FIGS. 3 to 6. The protocol: To a 50 mM glycine sodium hydroxide buffer (pH 10) containing trisodium citrate dihydrate (guaranteed class product of Wako Pure Chemical Industries, Ltd.) or synthetic zeolite A-3 (product of Wako Pure Chemical Industries, Ltd.) having each of final concentrations of 0 to 0.5%, a purified enzyme properly diluted with a 10 mM glycine sodium hydroxide buffer (pH 10) was added, followed by treatment at each of predetermined temperatures (40° C. and 45° C.) for 30 minutes. The residual enzyme activity of the reaction mixture was measured in accordance with the amylase activity measuring method [with a 50 mM glycine sodium hydroxide buffer (pH 10)].

Series [4] is described as follows: Effects of metal salts (inhibition ratio). The class given is biochemical. The note with it: pH 10, 30° C., 30 minutes; for inhibition ratio by Mn2+: 1 mM Mn2+. The method, then: Each of them was treated at pH 10 and 30° C. for 30 minutes in the presence of various metal salts, whereby their effects were studied.

B1: Duramyl: amylase derived from Bacillus licheniformis, purified from a Novo product in granular form (protein, UniProt P06278 30-512, looked up)
Alpha-amylase: ANLNGTLMQYFEWYMPNDGQHWKRLQNDSAYLAEHGITAVWIPPAYKGTSQADVGYGAYDLYDLGEFHQKGTVRTKYGTKGELQSAIKSLHSRDINVYGDVVINHKGGADATEDVTAVEVDPADRNRVISGEHRIKAWTHFHFPGRGSTYSDFKWHWYHFDGTDWDESRKLNRIYKFQGKAWDWEVSNENGNYDYLMYADIDYDHPDVAAEIKRWGTWYANELQLDGFRLDAVKHIKFSFLRDWVNHVREKTGKEMFTVAEYWQNDLGALENYLNKTNFNHSVFDVPLHYQFHAASTQGGGYDMRKLLNSTVVSKHPLKAVTFVDNHDTQPGQSLESTVQTWFKPLAYAFILTRESGYPQVFYGDMYGTKGDSQREIPALKHKIEPILKARKQYAYGAQHDYFDHHDIVGWTREGDSSVANSGLAALITDGPGGAKRMYVGRQNAGETWHDITGNRSEPVVINSEGWGEFHVNGGSVSIYVQR
Take B1: the Specific activity in series [1] worked out at 500 U/mg.

B2: K38: purified liquefying alkaline amylase obtained from strain Bacillus sp. KSM-K38 (FERM BP-6946); SEQ ID NO:4 (protein, listed as Bacillus sp.)
chain: MRRWVVAMLAVLFLFPSVVVADGLNGTMMQYYEWHLENDGQHWNRLHDDAAALSDAGITAIWIPPAYKGNSQADVGYGAYDLYDLGEFNQKGTVRTKYGTKAQLERAIGSLKSNDINVYGDVVMNHKMGADFTEAVQAVQVNPTNRWQDISGAYTIDAWTGFDFSGRNNAYSDFKWRWFHFNGVDWDQRYQENHIFRFANTNWNWRVDEENGNYDYLLGSNIDFSHPEVQDELKDWGSWFTDELDLDGYRLDAIKHIPFWYTSDWVRHQRNEADQDLFVVGEYWKDDVGALEFYLDEMNWEMSLFDVPLNYNFYRASQQGGSYDMRNILRGSLVEAHPMHAVTFVDNHDTQPGESLESWVADWFKPLAYATILTREGGYPNVFYGDYYGIPNDNISAKKDMIDELLDARQNYAYGTQHDYFDHWDVVGWTREGSSSRPNSGLATIMSNGPGGSKWMYVGRQNAGQTWTDLTGNNGASVTINGDGWGEFFTNGGSVSVYVNQ
Consider B2, for which the “resisting performance against EDTA or EGTA (residual activity)” value in series [2] is given as “not influenced by highly concentrated EDTA or EGTA”. In addition, the “resisting performance against citric acid or zeolite (residual activity)” value in series [3] is “influenced by neither citric acid nor zeolite”. Moreover, in series [1], the Specific activity came to 3600 U/mg. Besides, the “inhibition ratio by Cd2+ (K38 sentence)” value in series [4] (1 mM Cd2+) is “about 30%”. Also, the “inhibition ratio by Mn2+” value in series [4] was “about 75%”. In addition, the “inhibition ratio by Sr2+” value in series [4] (1 mM Sr2+) is listed as “about 30%”.

B3: K36: purified liquefying alkaline amylase obtained from strain Bacillus sp. KSM-K36 (FERM BP-6945); SEQ ID NO:2 (protein, listed as Bacillus sp.)
chain: MKRWVVAMLAVLFLFPSVVVADGLNGTMMQYYEWHLENDGQHWNRLHDDAEALSNAGITAIWIPPAYKGNSQADVGYGAYDLYDLGEFNQKGTVRTKYGTKAQLERAIGSLKSNDINVYGDVVMNHKLGADFTEAVQAVQVNPSNRWQDISGVYTIDAWTGFDFPGRNNAYSDFKWRWFHFNGVDWDQRYQENHLFRFANTNWNWRVDEENGNYDYLLGSNIDFSHPEVQEELKDWGSWFTDELDLDGYRLDAIKHIPFWYTSDWVRHQRSEADQDLFVVGEYWKDDVGALEFYLDEMNWEMSLFDVPLNYNFYRASKQGGSYDMRNILRGSLVEAHPIHAVTFVDNHDTQPGESLESWVADWFKPLAYATILTREGGYPNVFYGDYYGIPNDNISAKKDMIDELLDARQNYAYGTQHDYFDHWDIVGWTREGTSSRPNSGLATIMSNGPGGSKWMYVGQQHAGQTWTDLTGNHAASVTINGDGWGEFFTNGGSVSVYVNQ
With B3, in series [2], the “resisting performance against EDTA or EGTA (residual activity)” value is “not influenced by highly concentrated EDTA or EGTA”. Besides, the “resisting performance against citric acid or zeolite (residual activity)” value in series [3] is recorded as “influenced by neither citric acid nor zeolite”. The molecule further came in with a Specific activity in series [1] of 4300 U/mg. Moreover, the “inhibition ratio by Mn2+” value in series [4] was “about 95%”.

The values are drawn from patent US6916645B2, “Amylases” (Kao Corporation, priority 1998, dated 2005).
